In paper PMC11677236 one finds stoichiometry N data, which are given here for one substance.

The experiment deals with pyruvate kinase M2 (PKM2), endogenous (human (endogenous in A375 and G361)) (UniProt P14618). Nature of the experiment: native gel or EMSA; BN-PAGE of cell lysates with β-actin as loading control; A375 with TIPE interference, G361 with TIPE overexpression; dimer and tetramer bands of PKM2.

pyruvate kinase M2 (PKM2), endogenous, P14618 1-531 (enzyme; other documents disagree on this pair), sequence (P14618 whole entry): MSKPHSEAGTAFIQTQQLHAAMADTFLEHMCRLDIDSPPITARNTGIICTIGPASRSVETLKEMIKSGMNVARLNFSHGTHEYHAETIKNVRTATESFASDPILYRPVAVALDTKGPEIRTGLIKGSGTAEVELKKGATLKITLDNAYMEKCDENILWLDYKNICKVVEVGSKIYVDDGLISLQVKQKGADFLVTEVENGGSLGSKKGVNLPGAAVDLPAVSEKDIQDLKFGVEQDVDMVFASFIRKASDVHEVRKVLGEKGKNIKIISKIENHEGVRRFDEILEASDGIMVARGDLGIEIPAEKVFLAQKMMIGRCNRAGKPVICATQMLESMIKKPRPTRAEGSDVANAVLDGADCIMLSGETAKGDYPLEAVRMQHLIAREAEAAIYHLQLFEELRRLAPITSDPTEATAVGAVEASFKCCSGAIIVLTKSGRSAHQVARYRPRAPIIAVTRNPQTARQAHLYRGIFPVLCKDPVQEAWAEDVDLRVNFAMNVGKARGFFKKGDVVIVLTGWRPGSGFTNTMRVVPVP

By stoichiometry N is commonly meant a count of units in the complex or per binding partner. In the case of “pyruvate kinase M2 (PKM2), endogenous, P14618 1-531 (enzyme; other documents disagree on this pair)”, the stoichiometry N was found to be 2.
